Measured values taken from patent publication US20250257336A1, “ISOLATED OR ENGINEERED POLYPEPTIDES, MICROORGANISMS AS WELL AS METHOD FOR SYNTHESIZING POLYPHENOLIC PHYTOCHEMICALS PHOSPHATE DERIVATIVE USING THE POLYPEPTIDES OR MICROORGANISMS” (National Taiwan University, priority 2021, published 2025).
Residue numbers refer to the chain shown, from its start. In names and notes the source's numbering stands.

B1: K27A: site-directed mutant of the PPS of interest (SEQ ID NO: 13), Lys27 substituted with Ala (protein, listed as Bacillus subtilis)
chain: MKKRGVSNMYSVLFRQAEESSQLAGAAGMNLIKLTKHGLPVPDGFIIQTNALARFMEDNQLQETSENVESGIISGTFSDELKDELTSSFYKLRESYRSVAVRSSSASEDLEGASFAGQYETYLNIKTEEEFLAKVKECWASFFSGRVSSYKKKMNNQIAEPLMGIVVQGLIDSEMSGVIFSRNPVTHDDRELLISASYGLGEAVVSGSVTPDTFIVNKSSFEIQKEIGAKEIYMESAAEGIAEKETSEDMRSRFCLTDEQVIELAEITKKTEDLYGYPVDIEFGIADHQIYLLQARPITTIDQDKKAAEEKRSFMITDTDMNDFWLNMESNIEGPVSPLFSSFIVPALEYGLKKSMQKFPIGVVVDEVKLYRGHIYSKNQGGQQPPSEDCGKELFPILSEHMYDIINHTYLPFYRTLDQLAQTEHTAESALDAFQKLKAFYLTAYEEHFNIVFPQILLTNKLQAMYQDIQGESENAHFYEMLTGKMNKSLETDRCLWLFSMEVQENPNLLTIFENNKPEQLQEKLEQTDEGRHFLKNVHEFLQEYGWRSVKSHDLIEQIWVENPYFALANIQNYVRNGYHFDNEFQKTKEKREKLYNEFLENIEDPGLRTEFDRYYQWTLNSANIKDDHHFYIDAMLDAKARIFLLKIGELLAENGVIQDREDLWFLYDDEVEQALLHPVSLQEKAEKRRQIFHEYELAQAPAYLGTPTKEQLKAAEEIVGAVIEDEKNTENHIFGIAASSGIATGPVKIIRDANEFSQFAPGDVLVCKMTTPLWTSLFQDAKAIITDTGGILSHAAIIAREYGIPAVLGTRTATERLRDGDIITVDGSSGKITVVSRS
B2: H795A: site-directed mutant of the PPS of interest, His795 substituted with Ala (protein)
chain: B1 chain with A27K, H795A
B3: D627A: site-directed mutant of the PPS of interest, Asp627 substituted with Ala (protein)
chain: B1 chain with A27K, D627A
B4: H629A: site-directed mutant of the PPS of interest, His629 substituted with Ala (protein)
chain: B1 chain with A27K, H629A
B5: H630A: site-directed mutant of the PPS of interest, His630 substituted with Ala (protein)
chain: B1 chain with A27K, H630A
B6: E329A: site-directed mutant of the PPS of interest, Glu329 substituted with Ala (protein)
chain: B1 chain with A27K, E329A
B7: K378A: site-directed mutant of the PPS of interest, Lys378 substituted with Ala (protein)
chain: B1 chain with A27K, K378A

Assay: not given
Conditions: D7P vs daidzein, G7P vs genistein; produced with Bacillus subtilis BCRC 80517; cited from earlier work
In the case of `O=c1c(-c2ccc(O)cc2)coc2cc(OP(=O)(O)O)cc(O)c12` [G7P, genistein 7-O-phosphate], the “water solubility relative to daidzein and genistein, respectively” value is given as “a hundred thousand times”. In the case of `O=c1c(-c2ccc(O)cc2)coc2cc(OP(=O)(O)O)ccc12` [D7P, daidzein 7-O-phosphate], the “water solubility relative to daidzein and genistein, respectively” value is given as “a hundred thousand times”.

Assay: enzymatic activity of the PPS of interest and its protein mutant strains, genistein as substrate (G7P formation, HPLC)
Type: biochemical
Conditions: Mg2+/ATP, 40° C., 10 minutes, pH 7.8, FIG. 30
Description: After vibration-based mixing and centrifugation (13,000 rpm, 4° C., 5 minutes), the resulting supernatant was collected, diluted, and then analyzed by HPLC. The activity unit was defined as the amount of enzyme required to yield 1 nmol of product per unit time.
Once an enzyme was prepared, its protein concentration was diluted to 0.1 mg/mL. The enzyme and the enzyme reaction liquid were mixed at a ratio of 1:1 (v/v) and were allowed to react at 40° C. for 10 minutes, at the end of which methanol was added to dilute the protein tenfold and thereby terminate the reaction. The changes in concentration of genistein (GEN) and G7P (a product of GEN phosphorylation) were analyzed. The catalytic activity of the PPS of interest in the present invention and its mutant strains were subsequently calculated and compared, as shown in FIG. 30. […] The activity test results of other protein mutant strains show no total loss of activity but a trend of decrease in activity. […] However, while the aforesaid important catalytic sites in the active domain for stabilizing the phosphate group were inferred with relatively great certainty, the amino acids in Arm1 either had relatively poor prediction results or had important catalytic sites composed of non-polar amino acids (which when substituted with Ala produce little change in property) such that the combined use of site-directed mutagenesis and enzymatic activity determination lacked accuracy.
In the case of B1, the “catalytic activity (relative specific activity) compared with the PPS of interest” value is reported as “lost its activity”. In the case of B2, the “catalytic activity (relative specific activity) compared with the PPS of interest” value is reported as “total loss of PPS activity”. For B3, the “catalytic activity (relative specific activity) compared with the PPS of interest” value was “significant decrease in protein activity”. In the case of B4, the “catalytic activity (relative specific activity) compared with the PPS of interest” value is reported as “significant decrease in protein activity”. With B5 the “catalytic activity (relative specific activity) compared with the PPS of interest” value was “significant decrease in protein activity”. In the case of B6, the “catalytic activity (relative specific activity) compared with the PPS of interest” value is reported as “relatively significant decrease in activity”. With B7 the “catalytic activity (relative specific activity) compared with the PPS of interest” value was “relatively significant decrease in activity”.
